Assay results taken from doi:10.1101/438713.

Target: PvdJ-eGFP (Pseudomonas aeruginosa PAO1)
Assay: FRET or BRET

B1: PvdA-mCherry (enzyme)
chain: MTQATATAVVHDLIGVGFGPSNIALAIALQERAQAQGALEVLFLDKQGDYRWHGNTLVSQSELQISFLKDLVSLRNPTSPYSFVNYLHKHDRLVDFINLGTFYPCRMEFNDYLRWVASHFQEQSRYGEEVLRIEPMLSAGQVEALRVISRNADGEELVRTTRALVVSPGGTPRIPQVFRALKGDGRVFHHSQYLEHMAKQPCSSGKPMKIAIIGGGQSAAEAFIDLNDSYPSVQADMILRASALKPADDSPFVNEVFAPKFTDLIYSREHAERERLLREYHNTNYSVVDTDLIERIYGVFYRQKVSGIPRHAFRCMTTVERATATAQGIELALRDAGSGELSVETYDAVILATGYERQLHRQLLEPLAEYLGDHEIGRDYRLQTDERCKVAIYAQGFSQASHGLSDTLLSVLPVRAEEISGSLYQHLKPGTAARALHEHALAS
In the case of B1, the shortening of the donor fluorescence lifetime against PvdJ-eGFP alone is reported as 10 to 15%.
